Consider 1 substance from patent publication US20220064321A1.

Test [1] deals with CD16a on effector cells NK92MI-CD16a (UniProt P08637). Kind of test: cell-based or functional assay.
The target of test [2] is FcγRIIIa(V158) (Sino Biological Inc, 10389-H08C1) (UniProt P08637). Kind of test: binding ELISA; His-tagged FcγRIIIa captured by anti-His antibody, IgG pre-complexed with goat F(ab')2 anti-human-κ, HRP anti-human F(ab')2 detection. On the technique in general: An ELISA detects its analyte on a solid surface through an enzyme-linked reagent.
Chain of FcγRIIIa(V158) (Sino Biological Inc, 10389-H08C1) (P08637 17-208 F176V limits assumed): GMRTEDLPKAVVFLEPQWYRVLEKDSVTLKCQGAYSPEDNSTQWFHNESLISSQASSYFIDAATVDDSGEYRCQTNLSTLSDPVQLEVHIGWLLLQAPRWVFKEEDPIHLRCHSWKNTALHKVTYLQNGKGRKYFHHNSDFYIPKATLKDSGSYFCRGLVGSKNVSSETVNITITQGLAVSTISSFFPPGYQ

Chain of CD16a on effector cells NK92MI-CD16a (P08637 17-254 limits assumed): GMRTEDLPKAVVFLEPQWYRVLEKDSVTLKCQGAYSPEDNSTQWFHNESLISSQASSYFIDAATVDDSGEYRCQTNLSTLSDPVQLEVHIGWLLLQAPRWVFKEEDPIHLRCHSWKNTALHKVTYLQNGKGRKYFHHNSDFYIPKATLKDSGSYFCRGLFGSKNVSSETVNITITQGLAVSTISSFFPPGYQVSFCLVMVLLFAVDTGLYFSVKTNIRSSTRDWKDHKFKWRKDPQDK

As usually defined, the EC50 is the concentration needed to bring the measured effect to its halfway point. Read a low EC50 as an effect from little substance. As to RITUXAN® (rituximab) (antibody), in test [1], the ADCC Target cell: Daudi, EC50 stood at 4.53 ng/mL and the ADCC Target cell: Raji, EC50 turned out to be 0.345 ng/mL. This substance showed an EC50 in test [2] of 194 ng/mL.
